Test system: MS2 coat protein
Assay: apparent KD of MS2 coat protein; designed switch direction (-1 OFF switch, 1 ON switch): 1; higher = weaker reporter binding
Method in brief: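 The apparent KD reported per design is the median over clusters of curve fits to normalised cluster fluorescence. The RNA switches were transcribed on Illumina chips by stalled E. coli RNA polymerase. SNAP-549-labelled MS2 coat protein was titrated from 0.7 or 1.5 nM, doubling up to 3 µM, in Tris-HCl pH 7.5 buffer containing KCl, MgCl2, BSA, DTT, tRNA and Tween-20, with no input, 200 uM small-molecule ligand, or an oligonucleotide input.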

[1] = input ligand: microRNA oligo, concentration not stated
[2] = Eterna round: R95, input ligand: FMN 200 uM
[3] = Eterna round: R95, input ligand: microRNA oligo, concentration not stated
[4] = Eterna round: R95, input ligand: none

Sequence | apparent KD of MS2 coat protein (input ligand: FMN 200 uM) [nM] | apparent KD of MS2 coat protein [1] [nM] | apparent KD of MS2 coat protein (input ligand: none) [nM] | apparent KD of MS2 coat protein [2] [nM] | apparent KD of MS2 coat protein [3] [nM] | apparent KD of MS2 coat protein [4] [nM]
AGGGAGGAUGCAGGAUAUAUAAGACAUGAGGAUCACCCAUGUACCUCGUGGAGAAGAAAGGAGAGAUAGAAGGGUAGAGAGGAA [Default title] (Eterna round: R96, puzzle: Same State NG 2) | 314 | 288 | 255 | – | – | –
UAGUACAAGCUUUUUGCUUGUCUUAUUUAACAUGAGGAUCACCCAUGUAAGUUGAAAGUUAGAGAGUGCAGGUUGAA [JR_SHM208A_Sub051] (puzzle: Sensor for hsa-mir-208a) | – | – | – | 16.8 | 21.9 | 17.1
AGCUAUUAAUCAGGAUAUGGUCACAUGAGGAUCACCCAUGUAUAGAUGAUAAAAUGUGGUCAAUACUAGAAGGGAUUGCUAACA [SameState NG2 #63] (Eterna round: R96, puzzle: Same State NG 2) | 433 | 266 | 386 | – | – | –
CUGCUCGUGUGAGGAUAUGCCGCCGUUUCGGCUGCAGAAGGUGCUACGUUACAUGAGGAUCACCCAUGUCUCUGUUGUUUCGUA [salish99_SSNG1_r04_948] (Eterna round: R96, puzzle: Same State NG 1) | 40.1 | 28.8 | 35.9 | – | – | –
GUGGUCAGACAUGAGGAUCACCCAUGUGGAAUAAAUAAGGGUUAGGAUAUCGAAUAUAGGAUAUACGAGAAGGGAUGGUUGGUG (Eterna round: R96, puzzle: Same State NG 3) | 135 | 95.3 | 109 | – | – | –
UGUUGUAUUACAGGAUAUCUAUGAUUAUUAUUUAGAGAAGGGUAUUCACAUGAGGAUCACCCAUGUAUAUACGAGGAAGUUGUG [JMF's solution 59] (Eterna round: R96, puzzle: Same State NG 1) | – | 31.2 | – | – | – | –
AUAAGUUUGAUGCUCGUCUCUCCGUACAGACAUGAGGAUCACCCAUGUAGUCGGGAAGUAGCCCGGCCUGUAUGGCC [Magequ] (puzzle: Sensor for hsa-mir-208a) | – | – | – | 15.2 | 15.7 | 14.4
AAAAUGGUAUGUUACAUGAGGAUCACCCAUGUACUCUAAUCUGAGGAUAUGGGAAUGUAGAAGAACCAGAAGGCAGACAUCCAA [AK SSNG3-V2-22.1] (Eterna round: R96, puzzle: Same State NG 3) | 149 | 70.2 | 86 | – | – | –
UUAAUCUGAACAUGAGGAUCACCCAUGUAUCUUAUUUUAGGACAGGAUAUAGAUGUUAAGAAUUACUAGAAGGGUCAGUAUAUU [JR_SSNG3_Sub011] (Eterna round: R96, puzzle: Same State NG 3) | 19.1 | 20.2 | 25.8 | – | – | –
AACAAUCUAUCUGAGGAUAUCAUGAAAUAAACAUGAGGAUCACCCAUGUGCAGGAAAACUGCAUAUGAGAAGGCAGAUAGAUUGU [salish99_ss2_r3_058] (puzzle: Same State 2) | – | – | – | 57.7 | 1020 | 1580
GAGUAGGACUUACAGGAUAUAUGGAGGUUGACAUGAGGAUCACCCAUGUCUGAGUUGAGAGGAGGAUAGAAGGGUAUGGGAGGCG [JR_SS2_Sub030] (puzzle: Same State 2) | – | – | – | 23.4 | 16.5 | 22.4
GUUAAACAUGAGGAUCACCCAUGUCAAUGUAGUCGAGGAUAUGGGUAGCUAUGAGGCGUACUAGAAGGCGAGGAGU [Mat - Same State 1 - Mod of JL - D16] (puzzle: Same State 1) | – | – | – | 194 | 57.1 | 164
AGAUCAUGACGAGGAUAUGGUACAUGAGGAUCACCCAUGUAUGUACCACGACGGAAACGUCGAAUCCAGAAGGCGUCGUGGUCA [Mat - Same State NG 2 - JL mod - D22] (Eterna round: R96, puzzle: Same State NG 2) | 27.7 | 115 | 167 | – | – | –
GAAAAACAUGAGGAUCACCCAUGUAGAAAUAUGGGAGGAUAUACAAAGUCGAAAGACAAAGUAGAAGGCCUAAAAG [Mat - Same State 1 - Eli mod - D2] (Eterna round: R96, puzzle: Same State 1) | – | 96.8 | – | – | – | –
CCGAUGCAAAUAAAACAUGAGGAUCACCCAUGUGAGACACAUGAGGAUAUGCAGGUCAAAGACUUGCAGAAGGCAUAGCGUCGG [JL SSNG3 3.87] (Eterna round: R96, puzzle: Same State NG 3) | 24.1 | 227 | 270 | – | – | –
CAGCGCUGUCGAGAGGAUAUGCGGUGAUGGACAUGAGGAUCACCCAUGUUAGCGACAGCAUCACGGCAGAAGGCUCUACCGCUGC [Soteed Omei mod 18] (Eterna round: R96, puzzle: Same State 2) | 19.9 | 24.1 | 60.7 | – | – | –

Sequence | apparent KD of MS2 coat protein (input ligand: FMN 200 uM) [nM] | apparent KD of MS2 coat protein [1] [nM] | apparent KD of MS2 coat protein (input ligand: none) [nM] | apparent KD of MS2 coat protein [2] [nM] | apparent KD of MS2 coat protein [3] [nM] | apparent KD of MS2 coat protein [4] [nM]
GGAGCCAAGGCAGGAUAUUCAUAUUAAAUACAUGAGGAUCACCCAUGUUAGGCCAGAAGGCCUUGGGAGAAGGGCCAUGGCUCG [Xeonanis - 13 mod20] (Eterna round: R96, puzzle: Same State NG 2) | 17 | 34.1 | 52.5 | – | – | –
UUAGGAUGUGAAGGAUAUGCCGAGUUAAGCCCAGCAGAAGGUUACAUACCUUUUGAUACAUGAGGAUCACCCAUGUUCUAAGAU [Eternabot solution 45] (Eterna round: R96, puzzle: Same State NG 1) | – | 33.8 | – | – | – | –
UGUUGUUAAUUAGGAUAUGGGCACAUGAGGAUCACCCAUGUAUUGUCGAUGCUAUGUGGACACGUCUAGAAGGAAUGGCUAACA [SameState NG2 #90] (Eterna round: R96, puzzle: Same State NG 2) | 72.9 | 88 | 112 | – | – | –
GAGGAUGAACUACAGGAUAUAUAGCAGAUGACAUGAGGAUCACCCAUGUAAGAGAAAGGAGGGAGAUAGAAGGGUAUGGGAGGUG [JR_SS2_Sub037] (puzzle: Same State 2) | – | – | – | 34.4 | 28.6 | 27.1
GUUGAGAAAUAAGGAUAUGCAUGGAAGACACAUGAGGAUCACCCAUGUGGGAGGGAAACCAGGAGGUAGAAGGUAUUGGGAAAC [AK SSNG2-V2-23.1] (Eterna round: R96, puzzle: Same State NG 2) | 43.8 | 28.7 | 49.1 | – | – | –
CAGCGCUGUCGAGAGGAUAUGCGGUGAUGGACAUGAGGAUCACCCAUGUUAGCGACAGCAUUACGGUAGAAGGCUUCACAGCUGC [Soteed Omei mod 15] (Eterna round: R96, puzzle: Same State 2) | 287 | 14.4 | 55.7 | – | – | –
GAGCCAGUCCGAGGAUAUUCGUAGGAACACAUGAGGAUCACCCAUGUGGGCUCAGAAGAGCCCUGGGAGAAGGCGGGCUGGCUC [SS-NG2-LRO18] (Eterna round: R96, puzzle: Same State NG 2) | 7.53 | 8.45 | 17.5 | – | – | –
UACAUGAGGAUCACCCAUGUAGUCCAUGCACCGGACCGAAGCGAGGAUAUGGUCUGCAUCGGUGGCCAGAAGGCGCUUCCAGAA [Eternabot solution 26] (Eterna round: R96, puzzle: Same State NG 3) | 24.7 | 21.3 | 46.7 | – | – | –
UAAAUGAAGUAAGGAUAUACAUGAGGAUCACUCGUAGAAGGUACUAUACAUGAGGAUCACCCAUGUGCCGGUCAGAAGACUGGA [Mat - Same State NG 1 - JL mod - D6] (Eterna round: R96, puzzle: Same State NG 1) | 804 | 533 | 943 | – | – | –
AACGGUCGACAAGGAUAUGGACGGACAGGUUUGCCUGUGCGGCUCACAUGAGGAUCACCCAUGUUCUAGAAGGUGUCACCAAGA [Tiinor] (Eterna round: R96, puzzle: Same State NG 2) | 36.9 | 141 | 259 | – | – | –
AACAGUCGGCGAGGAUAUGGACGUACGGACUAACCCGCGCGGCUCACAUGAGGAUCACCCAUGUUCUAGAAGGCGCCACUGAAA [Xeorendi] (Eterna round: R96, puzzle: Same State NG 2) | 13.8 | 45.3 | 50.9 | – | – | –
GGUCCAUCAUGAGGAUAUGGCACCUUAUUGGUGCCAGAAGGCAUGUAAAUUAUAAUAAAACAUGAGGAUCACCCAUGUUGGACC [Eli NG1ss - 97] (Eterna round: R96, puzzle: Same State NG 1) | 857 | 19.5 | 78.4 | – | – | –
CCGAUGGUAUACUAGGAUAUGGGCGCCCUUACAUGAGGAUCACCCAUGUUAUCACAAAUCCGCGGCCAGAAGGAGUUCAUGGGAG [Ustiririra] (Eterna round: R96, puzzle: Same State 2) | 165 | 173 | 138 | – | – | –
UGUUGUAUUACAGGAUAUCUAGUAUUUUUUUUUAGAGAAGGGUAUUCACAUGAGGAUCACCCAUGUAUAUACGAGGAAGUUGUG [JMF's solution 46] (Eterna round: R96, puzzle: Same State NG 1) | – | 46.1 | – | – | – | –
AGUAGUGUAACAUGAGGAUCACCCAUGUAAGUAGAUGUAACCUAGGAUAUGGAUGAUAUGUUAGUCCAGAAGGAGGAUUGAAUA [JR_SSNG3_Sub037] (Eterna round: R96, puzzle: Same State NG 3) | 15.5 | 20.6 | 44.4 | – | – | –

— the supplement of paper PMC9170038
